Assay: yeast display, Sf9 membrane polyspecificity reagent, FACS + sequencing; frameworks hold sequencing errors
Summary of the method: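 Genes from sorted yeast were amplified by colony PCR, read by MiSeq 2 × 250 sequencing and filtered on CDR length. These cells carried a synthetic nanobody library in Saccharomyces cerevisiae BJ5465 and were sorted by FACS into low and high (top ~1%) gates on anti-HA and streptavidin fluorescence. Polyreactivity is labelled according to the gate of origin.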

| Sequence | polyreactivity (PSR sort gate) |
| --- | --- |
| QVQLVESGGGLVQAGGSLRLSCAASGSIFPIYTMGWYRQAPGKERELVAAITYNAGSTYYADSVKGRFTISRDNAKNTVYLQMNSLKPEDTAVYYCAADRYYDRTFPGYDYWGQGTQVTVSS | low polyreactivity |
| QVQLVESGGGLVQAGGSLRLSCAASGSIFPKYAMGWYRQAPGKERELVAAISRGGGSTYYADSVKGRFTISRDNAKNTVYLQMNSLKPEDTAVYYCAALFTPALSEYDYWGQGTQVTVSS | high polyreactivity |
| QVQLVESGGGLVQAGGSLRLSCAASGSIFPLNAMGWYRQSPGKERELVATISWRGGITYYADSVKGRFTISRDNAKNTVYLQMNSLKPEDTAVYYCATVGRWNSLWYRYRYDYWGQGTQVTVSS | low polyreactivity |
| QVQLVESGGGLVQAGGSLRLSCAASGSIFPLYDMGWSRQATGKQSELVASITSGDTTNYADSVKGRFTISRDNAKNTVYLQMISLNAEDTAVYYCATDTPTDRYAAYPNDQYYYWGQGTQVTVSS | low polyreactivity |
| QVQLVESGGGLVQAGGSLRLSCAASGSIFPPNAMGWYRQAPGKERELVAGISQSGGSTYYADSVKGRFTISRDNAKNTVYLQMNSLKPEDTAVYYCARRSRVGYPLDSWGQGTQVTVSS | high polyreactivity |
| QVQLVESGGGLVQAGGSLRLSCAASGSIFPPYAMGWYRQAPGKERELVASISNSGGSTYYADSVKGRFTISRDNAKNTVYLQMNSLKPEDTAVYYCAAYAVVSPSFTYGYWGQGTQVTVSS | high polyreactivity |
| QVQLVESGGGLVQAGGSLRLSCAASGSIFPQYAMGWYRQAPGKERELVAGISGSGGGTYYADSVKGRFTISRDNAKNTVYLQMNSLKPEDTAVYDCYDYWGQGTQVTVSS | low polyreactivity |
| QVQLVESGGGLVQAGGSLRLSCAASGSIFPRNAMGWYRQAPGKERELVAGISSGGSTNYADSVKGRFTISRDNAKNTVYLQMNSLNPEDTAVYYCAARQWIRNLGFGYSIYNYWGQGTQVTVSS | high polyreactivity |
| QVQLVESGGGLVQAGGSLRLSCAASGSIFPRYAMGWYRQAPGKERELVAAISWSGGSTYYADSVKGRFTISRDNAKNTFYLQMNSLKPEDTAVYYCAALSKHVQVAYDPWGQGTQVTVSS | high polyreactivity |
| QVQLVESGGGLVQAGGSLRLSCAASGSIFPRYAMGWYRQAPGKERELVAAITGSGSSTYYADSVKGRFTISRDNAKNTVYLQMNSLKPEDTAVYYCAALYGPGREYDYWGQGTQVTVSS | low polyreactivity |
| QVQLVESGGGLVQAGGSLRLSCAASGSIFPSNVMGWYRQAPGKERELVAAISTTGSTYYADSVKGRFTISRDNAKNTVYLQMNSLKTEDTAVYDCAAEYWSYAHGGQLYGYDYWGQGTQVTVSS | low polyreactivity |
| QVQLVESGGGLVQAGGSLRLSCAASGSIFPVYAMGWYRPAPGKERELVAAISWIGGGTYYADSVKGRFTISRDNAKNTVYLQKHSLKPEDTAVYDCAAVPYTSEYDYWGQGTEVTVSS | high polyreactivity |
| QVQLVESGGGLVQAGGSLRLSCAASGSIFPVYAMGWYRQAPGKEREFVARIRFSGGRTYYADSVKGRFTISRDNAKNTVYLQMNSLKPEDTAVYYCAKAQYRGRYGYWGQGTQVTVSS | high polyreactivity |
| QVQLVESGGGLVQAGGSLRLSCAASGSIFPVYAMGWYRQAPGKERELVATIRSGGARTYYADSVKGRFTISRDNAKNTVYLQMNSLKPEDTAVYYCAVDQSRWQARYYYWGQGTQVTVSS | high polyreactivity |
| QVQLVESGGGLVQAGGSLRLSCAASGSIFPVYTMGWYRQAPGKEREFVATITISGAITYYADSVKGRFTISRDNAKNSVYLQMNSLKPEDTAVYYCNTGPISYPANDYWGQGTQVTVSS | low polyreactivity |
| QVQLVESGGGLVQAGGSLRLSCAASGSIFPVYTMGWYRQAPWKERELVAAITKTGGSTYYADSVKGRFTISRDNAKNTVYLQMNILIPEDTAVYYCAKPATYYELDYWGQGTQVNVSS | low polyreactivity |

| Sequence | polyreactivity (PSR sort gate) |
| --- | --- |
| QVQLVESGGGLVQAGGSLRLSCAASGSIFPWNAMGWYRQAPGKERELVAAISRGGSTNYADSVKGRFTISRDNAKNTVYLQMNSLKPEDTAVYYCAVYYYSYHWGRGYDYWGQGTQVTVSS | high polyreactivity |
| QVQLVESGGGLVQAGGSLRLSCAASGSIFPYNAMGWYRQAPGKERELVATISSGGSTNYADSVKGRFTISRDNAKNTVYLQMKSLKPADTAVYYCAADVIVFFSAPNYWGDIEYGYWGQGTQVTVSS | low polyreactivity |
| QVQLVESGGGLVQAGGSLRLSCAASGSIFPYNAMGWYRQAPGKERELVATISSGGSTNYADSVKGRFTISRDNAKNTVYLQMNSLKPEDTAVYYCAADVIVFYYAPNYWVDIEYGYWGQGTQVTVSS | low polyreactivity |
| QVQLVESGGGLVQAGGSLRLSCAASGSIFPYNAMGWYRQERGNERELVAAISISGGSTYYADSVKGRFTISRDNAKNTVYFQMNSLKPEDTAVYYCAARQTLSSAFDYWGQGTQVTVSS | low polyreactivity |
| QVQLVESGGGLVQAGGSLRLSCAASGSIFPYVNAMGWYRQAPGKERELVASIPGGGGTKYADSVKGRFTISRDNAKNTVYLQMNSLKPEDTAVYYCNATSGNPASTARMNYWGQGTQVTVSS | low polyreactivity |
| QVQLVESGGGLVQAGGSLRLSCAASGSIFPYYAMGWYRQAPGKERELVAAISDSGDSTYYADSVKGRFTISRDNAKNTVYLQMNSLKPEDTAVYYCAADQTSSYYDPWGDYWGQGTQVTVSS | low polyreactivity |
| QVQLVESGGGLVQAGGSLRLSCAASGSIFPYYAMGWYRQAPGKERELVAAISGSGGSTYYADSVKGRFTISRDNAKNTVYLQLNSLKPVDTAVYYCATADVYVYWYTSTDDYWGQGTQVTVSS | low polyreactivity |
| QVQLVESGGGLVQAGGSLRLSCAASGSIFPYYAMGWYRQAPGKERELVAAISWSGTSTYYADSLKGRFTISRDNAKNTVYLQMNSLKPEDTAVYYCAASAVGTNHYGYWNESDYWGQGTQVTVSS | low polyreactivity |
| QVQLVESGGGLVQAGGSLRLSCAASGSIFPYYAMGWYRQAPGQEREFVASISSVTSTYADSVKGRFTISRDNAKNTVYLQMNSQKPEDPAVYYCAADRAYSWYSVSRYNYWGQGTQVTVSS | low polyreactivity |
| QVQLVESGGGLVQAGGSLRLSCAASGSIFPYYTMGWYRQAPGKERELVAAINYSGASTYYADSVKGRFTISRDNAKNTVYLQMNSLKPEDTAVYYCAADYPPLYRKYVYWGQGTQVTVSS | low polyreactivity |
| QVQLVESGGGLVQAGGSLRLSCAASGSIFPYYVMGWYRQAPGKERELVAAISTSDGSTYADSVKGRFTISRDNAKNTVYLQMNSLKPEDTAVYYCAVANVYYEGYDYWGQGTQVTVSS | low polyreactivity |
| QVQLVESGGGLVQAGGSLRLSCAASGSIFQAYVMGWYRQAPGKERELVATIDRRGGITYYADSVKGRFTISRDNAKNTVYLQMNSLKPEDTAVYYCATRTRLAQYSRGRYRYDYWGQGTQVTVSS | high polyreactivity |
| QVQLVESGGGLVQAGGSLRLSCAASGSIFQFYTMGWYRQAPGKERELVAAISSGGTRRYYADSVKGRFTISRDNAKNTVYLQMNSLKPEDTAVYYCAAPWSSSWSGVRTRMGYWGQGTQVTVSS | high polyreactivity |
| QVQLVESGGGLVQAGGSLRLSCAASGSIFQGNAMGWYRQAPGKERDLVAAISGGDSTNYADSVKGRFTISRDNAKNNVYLQMNSLKPEDTAVFYCNALSHWAPASYEYDYWGQGTQVTVSS | low polyreactivity |
| QVQLVESGGGLVQAGGSLRLSCAASGSIFQGNVMGWYRPAPGKERELVAAISYSGDSTYYADSVKGRFTISRDNAKNTVYLQMNRLKPEDSAVYYCYAYRNRYGYRTSSRRYGYWGQGTQVTVSS | high polyreactivity |

From the nanobody polyreactivity screen of Harvey et al. (2022)
